The test system of one data set is T24 cells. The experiment in a line: Cellular binding to laminin and Matrigel. The format is cell-based, human.
Data set [1] has as its system human fibrosarcoma (HT-1080) cells. To be noted: cited from earlier work.
Another data set concerns canine PRP. The experiment in a line: ADP-induced platelet aggregation in canine PRP. As to conditions: 20 μM ADP. The format is cell-based. As to the method: (§1) Column fractions obtained during purification were assayed for activity using fresh human platelet rich plasma (PRP) prepared from blood obtained from human volunteers who had had no medication for at least two weeks. Blood (36 ml) was drawn into 4 ml of 0.1 M citrate and centrifuged at 150×g for 20 minutes. The supernatant, PRP, was removed and the remaining blood was centrifuged at 10,000 RPM to obtain platelet poor plasma (PPP). Platelet counts were adjusted to 250,000 platelets/μl using a Coulter counter. A Helena four channel aggregometer was used to monitor platelet aggregation. Inhibition of ADP-induced platelet aggregation was monitored at 37° C. by adding venom fractions one minute prior to the addition of ADP (10-20 μM final concentration). […] Rabbit and canine PRP was prepared by the same procedure and used in the studies described below.
(§2) CN inhibited ADP-induced platelet aggregation in human, canine, and rabbit PRPs (FIG. 6). Empty circles represent human platelet rich plasma, solid circles represent canine PRP, and empty triangles represent rabbit PRP. Varying concentration of CN were preincubated for one minute with PRP prior to the addition of ADP.

The target of the next data set is purified (GP)IIb/IIIa (Homo sapiens, UniProt P05106+P08514). The data set is described as follows: Fibrinogen-(GP)IIb/IIIa ELISA. The format is binding. The text has this:
Several lines of evidence indicate that CN inhibits platelet aggregation by binding specifically to the (GP)IIb/IIIa integrin receptor. […] Additionally, the partial amino acid sequence of CN indicates considerable similarity with other disintegrins known to bind to (GP)IIb/IIIa. Finally, CN blocks 7E3 binding to (GP)IIb/IIIa. 7E3 is a murine monoclonal antibody that specifically binds to (GP)IIb/IIIa, thereby inhibiting human and canine platelet aggregation [Coller, B. S. et al., J. Clin. Invest. 72:325 (1983)].
(In general: In an ELISA, binding on a coated surface is turned into a signal by an enzyme label.)

For data set [2], the system named is human platelet rich plasma. The data set is described as follows: ADP-induced platelet aggregation in human platelet rich plasma. Type of data set: cell-based. As to the method:
as §1, §2

A further data set deals with OVCAR-5 cells. The data set is described as follows: Invasion of OVCAR-5 cells through Matrigel, modified Boyden chamber. The format is cell-based, human. To be noted: 1000 nM. As to the method:
Modified Boyden chambers were employed to measure invasion. Filters of 12 mm Boyden chamber with 12 μm pore size (Corning Costar, Cambridge, Mass.) were coated with 1:50 dilution of Matrigel in serum free medium. Cells (2.5×10^5 cells in 200 μl of medium) pre-treated with contortrostatin, antibodies against different integrins, or vehicle (control), were applied to the upper wells. HT1080 conditioned medium was added to the bottom well. The cells were incubated at 37° C. for 8 hr., at which point cells on the top side of the membrane were removed with a wet cotton swab. Cells which invaded through the filter membrane were fixed and stained with Diff-Quik™ staining kit (Dade Diagnostics of P. R. Inc., Aguada, Puerto Rico). The membranes were removed from the holder, and were mounted on slides. Migration was quantitated by determining the number of cells in five randomly selected high power vision field using a microscope. Each inhibitor concentration was tested in duplicate, and the experiments were repeated three times to confirm results.

The test system of data set [3] is canine carotid artery thrombosis model. The data set is described as follows: Reoccluding canine carotid artery thrombosis model. The format is in vivo. The text has this: The model of carotid artery thrombosis in the anesthetized canine described is a modification of one developed for the study of experimentally-induced coronary artery thrombosis [Romson, J. L. et al., Thromb. Res. 17:841 (1980)]. The experimental procedure results in the formation of a platelet rich intravascular thrombus at the site of an electrolytically-induced endothelial lesion in proximity to a distal arterial stenosis. The carotid artery is selected for the experimental model, thereby allowing one vessel to be used as a control and the other to be used after administration of the thrombolytic and antithrombotic therapy. APSAC (anisoylated plasminogen streptokinase activator complex) has been used as the thrombolytic agent successfully in this model. […] Parameters which are recorded include repeated measures of: phasic and mean carotid artery blood flow velocity using an ultrasonic flow probe, time to thrombotic occlusion, time to recannulization, ex vivo platelet aggregation, prothrombin time, thrombin time, activated partial thromboplastin time, red cell and white cell counts, hematocrit, EKG profile and body temperature, before and after administration of APSAC or APSAC plus CN to separate groups of animals.
Conditioned male mongrel dogs (8-10 kg) have been used for all in vivo studies. […] Arterial blood pressure is monitored from the cannulated femoral artery with the use of a blood pressure transducer. […] Blood flow velocity in the carotid vessels is monitored continuously. […]
Electrolytic injury to the intimal surface of each carotid vessel is accomplished with the use of an intravascular electrode. […] The current delivered to each vessel is monitored continuously and maintained at 300 μA. […]

The text below walks through data of patent US6710030B1, “Contortrostain (CN) and methods for its use in preventing metastasis and other conditions” (University of Southern California, priority 1993, dated 2004).

Like-named read-outs stand apart in the source and are kept apart here.

B1: contortrostatin (protein)
chain: DAPANPCCDAATCKLTTGSQCADGLCCDQCKFMKEGTVCRRARGDDLDDYCNGISAGCPRNPFHA
Consider B1, for which the “cellular binding to Matrigel” value in the data set with T24 cells was “does not inhibit cellular binding to Matrigel”. In addition, in the data set with T24 cells, the “cellular binding to laminin” value is “does not significantly inhibit cellular binding to laminin”. In addition, the “Inhibition of HT1080 cell binding to fibronectin” value in data set [1] (CN at 1 μg/ml) was 89%; in data set [1] (CN at 5 μg/ml) it was 85%. Moreover, the “IC50 of ADP-induced canine platelet aggregation” value with canine PRP was determined as 1.8 mg/L. Also, the “(GP)IIb/IIIa binding to immobilized fibrinogen” value with purified (GP)IIb/IIIa is given as “effectively blocks (GP)IIb/IIIa binding”. Besides, in data set [2] (10 μM ADP, preincubated one minute), the “IC50 of ADP-induced human platelet aggregation” value is 0.73 mg/L. For the same molecule, the “platelet aggregation inhibitory activity after reduction of the disulfide bonds” value in data set [2] (even at concentrations ten times the IC50) is on record as “completely eliminated platelet aggregation inhibitory activity”. In addition, the “invasion of OVCAR-5 cells through Matrigel” value in the data set on OVCAR-5 cells is “almost completely inhibited invasion”. The “recovery of platelet counts” value in data set [3] (by the conclusion of the experimental procedure) is given as 30-40 % of the baseline value. The “drop in platelet counts” value in data set [3] (during experiment, APSAC plus CN (0.155 mg/kg)) is 10-20 % of the baseline value. The “changes in mean arterial blood pressure or mean heart rate” value in data set [3] (following infusion of CN) is reported as “essentially no changes”.
